Measured values from the supplement of paper PMC9170038.

Tested on: MS2 coat protein
Experiment: apparent KD of MS2 coat protein; higher = weaker reporter binding
Settings: Eterna round: R107
Summary of the method: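 With or without constant ligand, designed RNA switches in 100 mM Tris-HCl pH 7.5, 80 mM KCl and 4 mM MgCl2 were titrated with SNAP-549-labelled MS2 coat protein. Concentrations went up in twofold steps from 0.7 or 1.5 nM to 3 µM. The switches had been transcribed on-chip from Illumina sequencing clusters, and apparent KD is the per-design median of normalised cluster binding-curve fits.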

[1] = input ligand: theophylline 20 uM
[2] = input ligand: theophylline 2 mM
[3] = input ligand: tryptophan 2.4 mM

Sequence | apparent KD of MS2 coat protein (input ligand: arginine 13.2 mM) [nM] | apparent KD of MS2 coat protein [1] [nM] | apparent KD of MS2 coat protein [2] [nM] | apparent KD of MS2 coat protein (input ligand: none) [nM] | apparent KD of MS2 coat protein [3] [nM]
UAACAUGAGGAUCACCCAUGUUUAGAAGAACGAGGACCGGUACGGCCGCCACUCGAAAAGUGGAAGAAAAGAGGGAUAGAAUGAU [Same State Trp A GF1] | 14 | 16 | 12.2 |  | 
UAAUGUGAGAGAAGGAGCGGAAGUCUCGUUACAACAUGAGGAUCACCCAUGUAACGUACAGUCCAGGUAGGUCGCUCUCGGGCGC [pqacmullin] | 16.9 | 21.4 | 18.1 | 14.8 | 15.5
GCGACCCUGAGAUCCUGCGUAACGUGAACACGAGGACCGGUACGGCCGCCACUCGAGAGAACAUGAGGAUCACCCAUGUCUGAGC [e-trypA-0(N)] | 16.2 | 28.4 | 26.4 |  | 
UUGGGUUUGCGAAGGAGCGGGAAAUAUAUAUAUAUAAUCCUAACAUGAGGAUCACCCAUGUCCCAGGUAGGUCGCGCAGGUUUGG [12.L] | 58.1 | 81.8 | 73.2 | 54.2 | 58.7
AGUAGACACGCGGCCGCCACUUGAGGAUCACCCAGGUGGUGUGUACUUGAAAACAAGUGCACAUCAAGGACCGGGCGUGUCUACA [Omei Tryp B SS D v2] | 12.9 | 17.1 | 13.9 |  | 27.3
UAAUAUCACAUAUUAUGGGUGUAAUGUGAUACCAGCUAGGAAACUAGCCCUUGGCAGCACAUGAGGAUCACCCAUGUAAGCUGUA [(T1)'-(M)'-(T1)-(T2)-(M1)-(M2)-(T2)'_Design4_2/19/17] | 29.1 | 123 |  |  | 68.9
UGUAUGUGAUUUGAUACCAGACCAGCUGGUGGUGCAUGAGGAACACCCAUGCAGGUUUGGGUCCCUUGGCAGCAAAUCGCAUACU [SS Theo B #24 Ms19] | 149 | 150 | 33 |  | 130
GGGCCCGGGCCGGAAACGGCCCGGGCCCUGCGAGGACCGGUACGGCCGCCACUCGCUCGAGUGGGUACAUGAGGAUCACCCAUGU [#17 Exclusion Tryptophan A] | 17.7 | 45.8 | 33.3 | 28.4 | 31.9
AGCGCUAUGCAUGAUACCAGCUACAUGAGGAUCACCCAUGUGCGUCAGAAAUGACUGUGUAGCCCUUGGCAGCAUAAAGCAUGUA [Exclusion - Theophylline B (Freestyle 9)] | 19.4 | 24.1 |  |  | 17.2
UGAUAUAGGGAGCCGUAUCAGAAACCUGAAGGAGCGCCGGAAAAGGCAGGUAGGUCGCGGGAACAUGAGGAUCACCCAUGUAUUC [dancer_small] | 17.4 | 21.2 | 19.2 | 19 | 18.3
UCACGACGGAUGGAUACCAGCGACAUGAGGAUCACCCAUGUAUGAGGAUCAGCCAUGUUAUGCCCUUGGCAGCCACGAAGGUCAU [YYYMULLIN] | 13.2 | 29.3 | 195 | 19 | 18.2
GAGCUGAUGUAGAGAUUUUAUUUCUGAGAUACCAGUACAGAAAUGUACCCUUGGCAGCUCAGCUUUACAUGAGGAUCACCCAUGU [Ex Theophylline A 16] | 16.9 | 17.8 |  |  | 17.6
AUAAUGGGUAUCGGAUUAUCAUGGAAUGAUACCAGAUACUUAGAUAUCCCUUGGCAGCAUGAGGACAUGAGGAUCACCCAUGUAU [#03 Exclusion-TheophyllineA] | 31.3 | 56.9 |  |  | 54.9
GUACAUGAGGAUCACCCAUGUGGUAGGGAUACCAGCCAGAAGAAAGGCCCUUGGCAGCUUGUAUUUAGUGUGGGUUUGUUUGUUC [Exclusion - Theophylline A] | 29 | 40.3 |  |  | 25.6
UCGUGUGUUUCGGAUACCAGUGAAAUCGAUACAUGAGGAUCACCCAUGUGAGAGGAUGUACACCCUUGGCAGCUGGCUGUAGCGG [yyzmullin] | 32.1 | 56.9 |  |  | 44.3
AGCACUGUGACGGCCGCCACUACAUAACAUGGGUGGUCAGGUUCAUUACAUGAGGAUCACCCAUGUAGGACCGGGUCUCAGUGCA [Omei Trp Exc B A v11] | 12.1 | 17.7 | 12.6 |  | 
UCGCUCGCCGCAAGGCGAGCGAGUUGCGAUACCAGCCCGGAAACGGGCCCUUGGCAGCGCACAUGAGGAUCACCCAUGUCAUGUU [#1 Exclusion - Theophylline A Attempt #4 (HarryS)] | 24.7 | 31.3 | 30.4 | 25 | 16.1
